Article PMC2562391

Legend:
Experiment in all cases: FRET or BRET; two-photon FLIM-FRET in living HeLa cells co-transfected with 0.5 μg of each plasmid, 24 h post transfection; eGFP fusion as donor, mCherry or mCherry fusion as acceptor; E from the donor lifetime with and without acceptor; read at the nuclear envelope, in the cytoplasm, in the nucleus and over the whole cell
[1] = molecular target: R90K Vpr-mCherry (HIV-1 (strain LAI))
[2] = molecular target: Vpr-mCherry (HIV-1 (strain LAI))
[3] = molecular target: mCherry-Vpr (HIV-1 (strain LAI))
[4] = molecular target: W54G Vpr-mCherry (HIV-1 (strain LAI))
[5] = molecular target: I60A Vpr-mCherry (HIV-1 (strain LAI))
[6] = molecular target: R77Q Vpr-mCherry (HIV-1 (strain LAI))
[7] = molecular target: Q3R Vpr-mCherry (HIV-1 (strain LAI))

R90K Vpr-eGFP (natural protein)
FRET efficiency E (whole cell) [1]: 18%

eGFP-Vpr (natural protein)
FRET efficiency E (cytoplasm) [2]: 9%
FRET efficiency E (nuclear envelope) [2]: 13%
FRET efficiency E (nucleus) [2]: 6%
FRET efficiency E (whole cell) [2]: 9%
FRET efficiency E (cytoplasm) [3]: 7%
FRET efficiency E (nuclear envelope) [3]: 13%
FRET efficiency E (nucleus) [3]: 6%
FRET efficiency E (whole cell) [3]: 8%

Vpr-eGFP (natural protein)
FRET efficiency E (cytoplasm) [2]: 23%
FRET efficiency E (nuclear envelope) [2]: 27%
FRET efficiency E (nucleus) [2]: 19%
FRET efficiency E (whole cell) [2]: 23%
FRET efficiency E (cytoplasm) [3]: 14%
FRET efficiency E (nuclear envelope) [3]: 17%
FRET efficiency E (nucleus) [3]: 13%
FRET efficiency E (whole cell) [3]: 15%

W54G Vpr-eGFP (natural protein)
FRET efficiency E (whole cell) [4]: 16%

I60A-Vpr-eGFP (natural protein)
FRET efficiency E (nucleus) [5]: 7%
FRET efficiency E (whole cell) [5]: 6%

R77Q Vpr-eGFP (natural protein)
FRET efficiency E (whole cell) [6]: 22%

Q3R Vpr-eGFP (natural protein)
FRET efficiency E (whole cell) [7]: 19%
